# From patent US20180009879A1
# Assays:
# [1] = target: HSV-1 (HF strain, VR-260 ATCC): unidentified viral antigen on virions or infected VERO-E6 cells (Herpes simplex virus 1); experiment: cell-based or functional assay
# [2] = target: HSV-2 (MS strain, VR-540 ATCC): unidentified viral antigen on virions or infected VERO-E6 cells (Herpes simplex virus 2); experiment: cell-based or functional assay
binder,measurement,setting,value
"Fab Ex2 (IgG1 Fab format) (Fab, V domains shown) VH: LESGGGVVQPGRSLRLSCAASGFTFTTFAMHWVRQAPGKGLEWLAFISYDGSNKYYADSVKGRFTISRDNSKNTLYLQMNSLRAEDTSIYYCAREVWNYADYWGQGALVTVSS VL: ELTQSPGTLSSSPGHRATLSCKASAPLGSNHMAWYQQKPGQAPRLLIYGASTRATGVPARFTGSGSGTDFTLTISSLQPEDFATYYCQQANSFPRTFGQGTKVEIK",concentration reducing HSV cytopathic effect by 50% (IIF assay),[1],< 5 µg/mL
same,concentration reducing HSV cytopathic effect by 50% (IIF assay),[2],< 5 µg/mL
